Target: TLND2AXH, ataxin-1 residues 410-561, recombinant protein for size exclusion chromatography
Assay: SEC; analytical, Superdex-75 10/300 GL, 20 mM Tris-HCl pH 7, 150 mM NaCl, 1 mM TCEP; 200 ul of 150 uM protein incubated 24 h at 37 °C, each injected separately; 0.8 ml/min; dimer to monomers

In the case of “TLND2AXH, ataxin-1 residues 410-561, recombinant protein for size exclusion chromatography (domain or fragment)”, the stoichiometry N is reported as 2.

— paper PMC3970802
